This passage reports absorbance results from patent publication US20200277399A1.

Assay [1] has as its target 2F5 antibody. The assay is described as follows: ELISA on coated 2F5; Fc variant 10 ug/ml.
For assay [2], the target named is 2F5 antibody. The assay is described as follows: ELISA on coated 2F5; Fc variant 0.00457247 ug/ml.
For assay [3], the target named is 2F5 antibody. The assay is described as follows: ELISA on coated 2F5; Fc variant 0.01371742 ug/ml.
The target of assay [4] is 2F5 antibody. The assay can be described thus: ELISA on coated 2F5; Fc variant 0.04115226 ug/ml.
For assay [5], the target named is 2F5 antibody. The assay is described as follows: ELISA on coated 2F5; Fc variant 0.12345679 ug/ml.
In assay [6] the target is 2F5 antibody. The assay is described as follows: ELISA on coated 2F5; Fc variant 0.37037037 ug/ml.
In assay [7] the target is 2F5 antibody. The assay can be described thus: ELISA on coated 2F5; Fc variant 1.11111111 ug/ml.
Assay [8] addresses 2F5 antibody. The assay is described as follows: ELISA on coated 2F5; Fc variant 3.33333333 ug/ml.

For “Fc_ELDKWA_BC (from UniProt P0DOX5 227-449)”, the absorbance in assay [1] was 0.619; in assay [2], 0.0133; in assay [3], 0.0107; in assay [4], 0.0197; in assay [5], 0.0213; in assay [6], 0.047. The absorbance in assay [7] stood at 0.091; in assay [8], 0.232.

Turning to “Fc_ELDKWA_DE (from UniProt P0DOX5 227-449)”, the absorbance in assay [1] is 1.25; in assay [2], 0.0177; in assay [3], 0.0283; in assay [4] it was 0.038; in assay [5] it was 0.0673; in assay [6], 0.185. Besides, the absorbance in assay [7] worked out at 0.495; in assay [8], 0.846.

On to “Fc_ELDKWA_FG (from UniProt P0DOX5 227-449)”, for which the absorbance was 1.4 in assay [1]; 0.012 in assay [2]; 0.0215 in assay [3]; 0.0365 in assay [4]; 0.108 in assay [5]; 0.297 in assay [6]. Moreover, the absorbance in assay [7] worked out at 0.706; in assay [8] it was 1.32.
